The text below walks through data of the supplement of paper PMC7125110.

B1: glmS ribozyme (parent)
chain: AUAAAAGCGCCAGAACUACAGAAAUGUAGUUGACGAGGAGGAGGUUUAUCGAAUUUUCGGCGGAUGCCUCCAAA

± gives the standard error. For part of these data: Variants at the floor of the assay were thinned out.

Holding throughout (settings): with glucosamine-6-phosphate
Data set [1] covers variants of B1. As to the kind of experiment: kcat; higher = faster cleavage; RNA array. The gist of the method:
(§1)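 kcat and KM were obtained from weighted Michaelis–Menten fits across concentrations of kobs values. Those came from one- or two-exponential decay fits to per-tile medians normalised to baseline and to non-cleaving reference variants. The variants were barcoded ribozymes transcribed in situ by E. coli RNA polymerase on sequenced MiSeq chips and tracked through a hybridised Cy3 probe at 37 °C, with 40 μM to 10 mM glucosamine-6-phosphate in HEPES/KCl/Mg(OAc)2 buffer flowed in.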

Variants of B1 are the subject of data set [2]. The data set is described as follows: KM; higher = weaker cofactor use; RNA array. The gist of the method: as §1
Data set [3] covers variants of B1. The data set is described as follows: self-cleavage kobs at 2500 uM GlcN6P; higher = faster cleavage; RNA array. The gist of the method:
as §1

Variants of B1 are the subject of data set [4]. As to the kind of experiment: self-cleavage kobs at 10000 uM GlcN6P; higher = faster cleavage; RNA array. An outline of the steps: as §1
In data set [5] the parent is B1. The data set is described as follows: self-cleavage kobs at 40 uM GlcN6P; higher = faster cleavage; RNA array. An outline of the steps:
as §1

The variants in data set [6] derive from B1. The data set is described as follows: self-cleavage kobs at 160 uM GlcN6P; higher = faster cleavage; RNA array. The gist of the method: as §1
The variants in data set [7] derive from B1. As to the kind of experiment: self-cleavage kobs at 640 uM GlcN6P; higher = faster cleavage; RNA array. The gist of the method: as §1

In the case of AUAAAAGCGCCAGAACUACAGAAAUGUAGUUGACGAGGAGGAGGUUUAUCGAAUUGUCAGCGGAUGCCUCCAAA, in the data set with glucosamine-6-phosphate [1], the kcat is 5.14e-05 ± 3e-06 s⁻¹. Further, the KM with glucosamine-6-phosphate [2] was 1920 ± 460 µM. Also, the “self-cleavage kobs at 2500 uM GlcN6P” value with glucosamine-6-phosphate [3] worked out at 3e-05 ± 8.2e-06 s⁻¹. Besides, the “self-cleavage kobs at 10000 uM GlcN6P” value with glucosamine-6-phosphate [4] was determined as 4.3e-05 ± 6.1e-06 s⁻¹.
As for AUAAAAGCGCCAGAACUACAGAAAUGUAGUUGACGAGGAAGAGGUUUAUCGAAUUUUCGGCGGAUGCCUACAAA, the kcat with glucosamine-6-phosphate [1] was 0.000241 ± 1.6e-05 s⁻¹. For the same variant, in the data set with glucosamine-6-phosphate [2], the KM was 350 ± 60 µM. Also, in the data set with glucosamine-6-phosphate [5], the “self-cleavage kobs at 40 uM GlcN6P” value was found to be 2.59e-05 ± 1.2e-05 s⁻¹. In addition, the “self-cleavage kobs at 160 uM GlcN6P” value in the data set with glucosamine-6-phosphate [6] was 6.86e-05 ± 1.9e-05 s⁻¹. Also, in the data set with glucosamine-6-phosphate [7], the “self-cleavage kobs at 640 uM GlcN6P” value amounted to 0.000163 ± 2.5e-05 s⁻¹. In the data set with glucosamine-6-phosphate [3], the “self-cleavage kobs at 2500 uM GlcN6P” value was 0.000235 ± 4.9e-05 s⁻¹. The “self-cleavage kobs at 10000 uM GlcN6P” value in the data set with glucosamine-6-phosphate [4] worked out at 0.000217 ± 3.8e-05 s⁻¹.
On to AUAAAAGCCCCAGAACUACAGAAAUGUAGUUGACGAGGAGGAGGUUUAUCGAAUUUUCGGGGGAUGCCUCCAAA, for which the kcat with glucosamine-6-phosphate [1] is 0.00838 ± 0.0021 s⁻¹. Besides, the KM with glucosamine-6-phosphate [2] is 4330 ± 1400 µM. The “self-cleavage kobs at 40 uM GlcN6P” value with glucosamine-6-phosphate [5] came to 9.12e-05 ± 1.6e-05 s⁻¹. In addition, the “self-cleavage kobs at 160 uM GlcN6P” value with glucosamine-6-phosphate [6] was 0.000309 ± 5.7e-05 s⁻¹. The “self-cleavage kobs at 640 uM GlcN6P” value in the data set with glucosamine-6-phosphate [7] was 0.000828 ± 0.00017 s⁻¹. The “self-cleavage kobs at 2500 uM GlcN6P” value in the data set with glucosamine-6-phosphate [3] was 0.00371 ± 0.00066 s⁻¹. The “self-cleavage kobs at 10000 uM GlcN6P” value in the data set with glucosamine-6-phosphate [4] turned out to be 0.00575 ± 0.00085 s⁻¹.
On to AUAAAAGCGCCAGAACUACAGAAAUGUAGUUGACGAGGAUGUGGUUUAUCGAAUUUUCGGCGGAUGCCUCCAAA, for which the kcat in the data set with glucosamine-6-phosphate [1] turned out to be 0.000115 ± 2e-05 s⁻¹. Further, the “self-cleavage kobs at 160 uM GlcN6P” value with glucosamine-6-phosphate [6] turned out to be 2.53e-05 ± 1.2e-05 s⁻¹. In addition, in the data set with glucosamine-6-phosphate [7], the “self-cleavage kobs at 640 uM GlcN6P” value is 4.15e-05 ± 9.6e-06 s⁻¹. Besides, in the data set with glucosamine-6-phosphate [3], the “self-cleavage kobs at 2500 uM GlcN6P” value was determined as 0.000109 ± 1.3e-05 s⁻¹. Moreover, the “self-cleavage kobs at 10000 uM GlcN6P” value with glucosamine-6-phosphate [4] turned out to be 9.45e-05 ± 1.4e-05 s⁻¹.
As to AUAAAAGCGCCAGAACUACAGAAAUGUAGUUGACGAGGUGGAGGUUUAUCGAAUUUUCGGCGGAUCACUCCAAA, the kcat in the data set with glucosamine-6-phosphate [1] was determined as 0.000462 ± 8.7e-05 s⁻¹. The KM with glucosamine-6-phosphate [2] was found to be 1570 ± 490 µM. The “self-cleavage kobs at 160 uM GlcN6P” value with glucosamine-6-phosphate [6] came to 4.03e-05 ± 1.3e-05 s⁻¹. Besides, the “self-cleavage kobs at 640 uM GlcN6P” value in the data set with glucosamine-6-phosphate [7] was 0.00015 ± 3.2e-05 s⁻¹. The “self-cleavage kobs at 2500 uM GlcN6P” value in the data set with glucosamine-6-phosphate [3] was 0.000248 ± 6.1e-05 s⁻¹. Further, in the data set with glucosamine-6-phosphate [4], the “self-cleavage kobs at 10000 uM GlcN6P” value was found to be 0.000455 ± 0.00013 s⁻¹.
Turning to AUAAAAGCGCCAGAACUACAGAAAUGUAGUUGACGAGGAGGAUGUUUAUCGAAUUUUCGGCGGAUGCCUUCAAA, in the data set with glucosamine-6-phosphate [1], the kcat amounted to 2.12e-05 ± 3.3e-06 s⁻¹. The “self-cleavage kobs at 40 uM GlcN6P” value with glucosamine-6-phosphate [5] was < 1e-05 s⁻¹. Besides, in the data set with glucosamine-6-phosphate [6], the “self-cleavage kobs at 160 uM GlcN6P” value was < 1e-05 s⁻¹. In addition, the “self-cleavage kobs at 2500 uM GlcN6P” value with glucosamine-6-phosphate [3] is 2.17e-05 ± 8.6e-06 s⁻¹.
As for AUAAAAGCGCCAGAACUACAGAAAUGUAGUUGACGAGGAGGAGGUUUAUUGAAUUUUCGGCGAAUGCCUCCAAA, in the data set with glucosamine-6-phosphate [1], the kcat is < 1e-05 s⁻¹. Besides, the “self-cleavage kobs at 40 uM GlcN6P” value in the data set with glucosamine-6-phosphate [5] was < 1e-05 s⁻¹. Also, the “self-cleavage kobs at 160 uM GlcN6P” value with glucosamine-6-phosphate [6] was < 1e-05 s⁻¹.
With AUAAAAGCGCAAGAACUACAGAAAUGUAGUUGACGAGGUGGAGGUUUAUCGAAUUUUCGGCGGAUGCCUCCAAA, the kcat with glucosamine-6-phosphate [1] came out at 0.000122 ± 2.3e-05 s⁻¹. Besides, in the data set with glucosamine-6-phosphate [3], the “self-cleavage kobs at 2500 uM GlcN6P” value was found to be 7e-05 ± 9.6e-06 s⁻¹. The “self-cleavage kobs at 10000 uM GlcN6P” value in the data set with glucosamine-6-phosphate [4] is 9.43e-05 ± 1.2e-05 s⁻¹.
